Assay results reported in patent US20040138106A1.

Molecular target: Gly4→Compound A mutant myoglobin (myoglobin containing β-O-GlcNAc-L-serine at position 4, C-terminal His6 tag) (UniProt P02185)
Experiment: ELISA-like assay: 200 ng myoglobin immobilized, biotinylated BSII, streptavidin-alkaline phosphatase, p-nitrophenyl phosphate, A405

Gly4→Compound A mutant myoglobin (myoglobin containing β-O-GlcNAc-L-serine at position 4, C-terminal His6 tag), sequence (P02185 other isoform, or with tags, fused parts or gaps mutant): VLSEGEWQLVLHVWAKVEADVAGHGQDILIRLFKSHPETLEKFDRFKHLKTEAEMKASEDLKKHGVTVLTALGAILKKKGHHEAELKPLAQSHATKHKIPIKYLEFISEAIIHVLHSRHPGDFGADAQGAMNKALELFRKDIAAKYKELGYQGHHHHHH

Q: Which fold signal (A405) against wild-type myoglobin does the source give for “GlcNAc-specific lectin, Bandeiraea simplicifolia II (BSII), biotinylated” here?
A: > 200 fold
